Laboratory results taken from patent US5854042A, “Sugar-chain synthetase and process for producing the same” (The Institute of Physical and Chemical Research, priority 1993, dated 1998).
Each block holds one molecule with its values, some of them ahead of it.

Legend:
[1] = biological target: Asialo-alpha 1 acid glycoprotein
[2] = biological target: Asialo-fetuin (Bos taurus (Bovine)) (UniProt P12763)
[3] = biological target: Asialo-ovomucoid
[4] = biological target: Bovine submaxillary asialo-mucin (bovine)
[5] = biological target: Bovine submaxillary mucin (bovine)
[6] = biological target: Fetuin (Bos taurus (Bovine)) (UniProt P12763)
[7] = biological target: Ovomucoid
[8] = biological target: alpha 1 acid glycoprotein
[9] = biological target: Asialo-alpha 1 acid glycoprotein; remark: listed apart in the source
[10] = biological target: Asialo-fetuin (Bos taurus (Bovine)) (UniProt P12763); remark: listed apart in the source
[11] = biological target: Bovine submaxillary asialo-mucin (bovine); remark: listed apart in the source
[12] = biological target: Bovine submaxillary mucin (bovine); remark: listed apart in the source
[13] = biological target: Fetuin (Bos taurus (Bovine)) (UniProt P12763); remark: listed apart in the source
[14] = biological target: alpha 1 acid glycoprotein; remark: listed apart in the source
[15] = biological target: Asialo-orosomucoid
[16] = substrate: CC(=O)N[C@H]1C(O)O[C@H](CO)[C@@H](O[C@@H]2O[C@H](CO)[C@H](O)[C@H](O)[C@H]2O)[C@@H]1O; assay: purified protein, by the assay type; conditions: pH 6.0; 37.0 °C
[17] = substrate: CC(=O)N[C@H]1[C@H]([C@H](O)[C@H](O)CO)O[C@](OP(=O)(O)OC[C@H]2O[C@@H](n3ccc(N)nc3=O)[C@H](O)[C@@H]2O)(C(=O)O)C[C@@H]1O; assay: purified protein, by the assay type; conditions: other: measured with N-acetyllactosamine as the acceptor; pH 6.0; 37.0 °C
[18] = substrate: CC(=O)N[C@H]1C(O)O[C@H](CO)[C@@H](O[C@@H]2O[C@H](CO)[C@H](O)[C@H](O)[C@H]2O)[C@@H]1O; assay: cells, lysate or membranes named; conditions: other: renatured enzyme after removal of urea by dialysis
[19] = substrate: CC(=O)N[C@H]1[C@H]([C@H](O)[C@H](O)CO)O[C@](OP(=O)(O)OC[C@H]2O[C@@H](n3ccc(N)nc3=O)[C@H](O)[C@@H]2O)(C(=O)O)C[C@@H]1O; assay: Sialyltransferase assay, kinetic parameters (Km) of the renatured enzyme; type: biochemical, mouse; conditions: other: renatured enzyme after removal of urea by dialysis; measured with N-acetyllactosamine as the acceptor
Procedure: Reaction mixture was added with 1 mg/ml bovine serum albumin, 1 μl of the enzyme solution, and 50 mM sodium cacodylate (pH 6.0) to a total volume of 10 μl, and incubation was continued at 37° C. for 1 h. Then, the samples were applied to silica gel60 HPTLC plate (Merck Germany) and developed with ethanol/pyridine/n-butanol/acetic acid/water (100:10:10:3:30) as a developing solvent. The radioactivity transferred on each plate was determined with a radio image analyzer BAS2000 (Fuji Photo Film, Japan, Lee, Y.-C. et al., Eur. J. Biochem., 216, 377-385, 1993).

Molecule: GalNAc alpha 2,6-sialyltransferase P-B3 (enzyme)
- Acceptor substrate specificity, pmol/h/µl enzyme fraction ([14C]NeuAc transfer) [1]: 1.2 pmol/h/µL
- Acceptor substrate specificity, pmol/h/µl enzyme fraction ([14C]NeuAc transfer) [2]: 35 pmol/h/µL
- Acceptor substrate specificity, pmol/h/µl enzyme fraction ([14C]NeuAc transfer) [3]: 1 pmol/h/µL
- Acceptor substrate specificity, pmol/h/µl enzyme fraction ([14C]NeuAc transfer) [4]: 5.2 pmol/h/µL
- Acceptor substrate specificity, pmol/h/µl enzyme fraction ([14C]NeuAc transfer) [5]: 0.5 pmol/h/µL
- Acceptor substrate specificity, pmol/h/µl enzyme fraction ([14C]NeuAc transfer) [6]: 28 pmol/h/µL
- Acceptor substrate specificity, pmol/h/µl enzyme fraction ([14C]NeuAc transfer) [7]: < 0.5 pmol/h
- Acceptor substrate specificity, pmol/h/µl enzyme fraction ([14C]NeuAc transfer) [8]: < 0.5 pmol/h

B1: Rat liver Gal β 1,4GlcNAc α 2,6-sialyltransferase (obtained from Sigma) (Rattus norvegicus) (protein)
chain: MIHTNLKKKFSLFILVFLLFAVICVWKKGSDYEALTLQAKEFQMPKSQEKVAMGSASQVVFSNSKQDPKEDIPILSYHRVTAKVKPQPSFQVWDKDSTYSKLNPRLLKIWRNYLNMNKYKVSYKGPGPGVKFSVEALRCHLRDHVNVSMIEATDFPFNTTEWEGYLPKENFRTKVGPWQRCAVVSSAGSLKNSQLGREIDNHDAVLRFNGAPTDNFQQDVGSKTTIRLMNSQLVTTEKRFLKDSLYTEGILIVWDPSVYHADIPKWYQKPDYNFFETYKSYRRLNPSQPFYILKPQMPWELWDIIQEISADLIQPNPPSSGMLGIIIMMTLCDQVDIYEFLPSKRKTDVCYYHQKFFDSACTMGAYHPLLFEKNMVKHLNEGTDEDIYLFGKATLSGFRNIRC
- Km [16]: 5000 µM
- Km [17]: 40 µM

B2: mouse Gal β 1,4GlcNAc α 2,6-sialyltransferase, recombinant soluble form lacking the cytosolic and transmembrane domains (29th amino acid residue to C-terminal … (protein)
chain: GSDYEALTLQAKVFQMPKSQEKVAVGPAPQAVFSNSKQDPKEGVQILSYPRVTAKVKPQPSLQVWDKDSTYSKLNPRLLKIWRNYLNMNKYKVSYKGPGPGVKFSVEALRCHLRDHVNVSMIEATDFPFNTTEWEGYLPKENFRTKAGPWHKCAVVSSAGSLKNSQLGREIDNHDAVLRFNGAPTDNFQQDVGTKTTIRLVNSQLVTTEKRFLKDSLYTEGILILWDPSVYHADIPQWYQKPDYNFFETYKSYRRLHPSQPFYILKPQMPWELWDIIQEISPDLIQPNPPSSGMLGIIIMMTLCDQVDIYEFLPSKRKTDVCYYHQKFFDSACTMGAYHPLLFEKNMVKHLNEGTDEDIYLFGKATLSGFRNNRC
- Km [18]: 6500 µM
- Km [19]: 80 µM

The next lines start with the values.

- Relative Activity to Gal β 1,4GlcNAc (relative to Gal β 1,4GlcNAc) [9]: 1
- Relative Activity to Gal β 1,4GlcNAc (relative to Gal β 1,4GlcNAc) [10]: 0.97
- Relative Activity to Gal β 1,4GlcNAc (% of the control) [11]: < 2
- Relative Activity to Gal β 1,4GlcNAc (% of the control) [12]: < 2
- Relative Activity to Gal β 1,4GlcNAc (% of the control) [13]: < 2
- Relative Activity to Gal β 1,4GlcNAc (relative to Gal β 1,4GlcNAc) [14]: 0.1
- Km [15]: 200 µM
Molecule: Rat liver Gal beta 1,4GlcNAc alpha 2,6-sialyltransferase (from UniProt P13721) (enzyme)

- Relative Activity to Gal β 1,4GlcNAc (relative to Gal β 1,4GlcNAc) [9]: 2.1
- Relative Activity to Gal β 1,4GlcNAc (relative to Gal β 1,4GlcNAc) [10]: 1.5
- Relative Activity to Gal β 1,4GlcNAc (% of the control) [11]: < 2
- Relative Activity to Gal β 1,4GlcNAc (% of the control) [12]: < 2
- Relative Activity to Gal β 1,4GlcNAc (relative to Gal β 1,4GlcNAc) [13]: 0.25
- Relative Activity to Gal β 1,4GlcNAc (relative to Gal β 1,4GlcNAc) [14]: 0.1
- Km [15]: 400 µM
Molecule: Renatured mouse Gal beta 1,4GlcNAc alpha 2,6-sialyltransferase (from UniProt Q64685) (enzyme)
